According to paper PMC10397247:
Blank lines part the entries; values can stand above or below the binder they belong to.

How the values were obtained:
Experiment in all cases: two-hybrid library CCNG1;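 further: natural log of median RNA to DNA barcode read ratio; higher means stronger binding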
P2bHq = molecular target: T1, P2bHq
T1 chain: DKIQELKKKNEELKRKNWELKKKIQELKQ

P1bHq = molecular target: T2, P1bHq
T2 chain: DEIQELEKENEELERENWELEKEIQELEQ

P7bHq = molecular target: T3, P7bHq
T3 chain: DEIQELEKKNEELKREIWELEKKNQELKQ

P5bHq = molecular target: T4, P5bHq
T4 chain: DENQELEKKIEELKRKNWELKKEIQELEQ

P6bHq = molecular target: T5, P6bHq
T5 chain: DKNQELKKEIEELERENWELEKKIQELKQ

P4bHq = molecular target: T6, P4bHq
T6 chain: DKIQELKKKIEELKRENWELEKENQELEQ

P8bHq = molecular target: T7, P8bHq
T7 chain: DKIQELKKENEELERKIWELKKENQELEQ

P9bHq = molecular target: T8, P9bHq
T8 chain: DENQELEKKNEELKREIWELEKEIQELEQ

P3bHq = molecular target: T9, P3bHq
T9 chain: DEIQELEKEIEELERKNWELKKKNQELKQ

4H40-bA = molecular target: T10, 4H40-bA
T10 chain: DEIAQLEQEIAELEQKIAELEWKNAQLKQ

4H2692-bA = molecular target: T11, 4H2692-bA
T11 chain: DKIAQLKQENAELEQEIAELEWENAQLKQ

4H2588-bA = molecular target: T12, 4H2588-bA
T12 chain: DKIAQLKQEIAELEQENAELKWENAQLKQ

4H319-bA = molecular target: T13, 4H319-bA
T13 chain: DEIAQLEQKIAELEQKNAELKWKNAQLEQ

4H2473-bA = molecular target: T14, 4H2473-bA
T14 chain: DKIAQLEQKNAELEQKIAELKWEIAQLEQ

4H348-bA = molecular target: T15, 4H348-bA
T15 chain: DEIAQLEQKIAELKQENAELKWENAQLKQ

4H492-bA = molecular target: T16, 4H492-bA
T16 chain: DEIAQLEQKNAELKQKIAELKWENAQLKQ

4H2503-bA = molecular target: T17, 4H2503-bA
T17 chain: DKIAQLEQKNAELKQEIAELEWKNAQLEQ

4H3057-bA = molecular target: T18, 4H3057-bA
T18 chain: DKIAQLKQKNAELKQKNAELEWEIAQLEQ

4H2915-bA = molecular target: T19, 4H2915-bA
T19 chain: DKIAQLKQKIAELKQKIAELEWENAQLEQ

4H477-bA = molecular target: T20, 4H477-bA
T20 chain: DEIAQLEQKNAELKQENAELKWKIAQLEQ

P11A-bS = molecular target: T21, P11A-bS
T21 chain: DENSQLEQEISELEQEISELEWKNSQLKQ

4H2717-bA = molecular target: T22, 4H2717-bA
T22 chain: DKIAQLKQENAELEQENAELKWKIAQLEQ

4H741-bA = molecular target: T23, 4H741-bA
T23 chain: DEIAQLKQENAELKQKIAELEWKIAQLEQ

4H3277-bA = molecular target: T24, 4H3277-bA
T24 chain: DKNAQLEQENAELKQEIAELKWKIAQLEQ

4H2839-bA = molecular target: T25, 4H2839-bA
T25 chain: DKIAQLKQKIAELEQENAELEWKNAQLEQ

O4-bN = molecular target: T26, O4-bN
T26 chain: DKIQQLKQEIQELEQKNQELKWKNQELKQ

O2-bN = molecular target: T27, O2-bN
T27 chain: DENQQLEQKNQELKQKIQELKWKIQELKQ

O3-bN = molecular target: T28, O3-bN
T28 chain: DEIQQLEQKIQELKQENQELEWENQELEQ

O7-bN = molecular target: T29, O7-bN
T29 chain: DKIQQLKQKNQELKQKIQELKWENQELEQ

O5-bN = molecular target: T30, O5-bN
T30 chain: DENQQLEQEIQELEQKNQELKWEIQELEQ

O13-bN = molecular target: T31, O13-bN
T31 chain: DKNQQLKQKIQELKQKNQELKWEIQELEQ

O15-bN = molecular target: T32, O15-bN
T32 chain: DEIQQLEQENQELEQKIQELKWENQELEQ

O9-bN = molecular target: T33, O9-bN
T33 chain: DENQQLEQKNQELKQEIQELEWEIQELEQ

O8-bN = molecular target: T34, O8-bN
T34 chain: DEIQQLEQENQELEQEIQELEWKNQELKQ

O14-bN = molecular target: T35, O14-bN
T35 chain: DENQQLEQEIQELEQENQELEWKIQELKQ

O16-bN = molecular target: T36, O16-bN
T36 chain: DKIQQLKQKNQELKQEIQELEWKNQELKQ

O12-bN = molecular target: T37, O12-bN
T37 chain: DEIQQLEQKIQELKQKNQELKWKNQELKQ

O11-bN = molecular target: T38, O11-bN
T38 chain: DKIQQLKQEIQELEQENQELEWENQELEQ

O6-bN = molecular target: T39, O6-bN
T39 chain: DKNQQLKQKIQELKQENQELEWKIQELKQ

interaction score (P2bHq): 1.87
interaction score (P1bHq): -0.606
interaction score (P7bHq): -0.288
interaction score (P5bHq): -0.887
interaction score (P6bHq): -0.273
interaction score (P4bHq): -0.52
interaction score (P8bHq): -0.272
interaction score (P9bHq): -1.78
interaction score (P3bHq): -1.03
Binder: DEIQELEKENEELERENWELEKEIQELEQ [P1bHq]

interaction score (4H40-bA): -0.325
interaction score (4H2692-bA): 0.426
interaction score (4H2588-bA): -1.02
interaction score (4H319-bA): -0.981
interaction score (4H2473-bA): 0.144
interaction score (4H348-bA): -1.44
interaction score (4H492-bA): -1.09
interaction score (4H2503-bA): 0.82
interaction score (4H3057-bA): 0.511
interaction score (4H2915-bA): 0.904
interaction score (4H477-bA): -0.946
interaction score (P11A-bS): -0.676
interaction score (4H2717-bA): -0.42
interaction score (4H741-bA): -1.42
interaction score (4H3277-bA): -1.53
interaction score (4H2839-bA): -0.648
Binder: DKIAQLEQKNAELEQKIAELKWEIAQLEQ [4H2473-bA]

interaction score (O4-bN): 0.401
interaction score (O2-bN): -0.23
interaction score (O3-bN): -0.437
interaction score (O7-bN): -1.3
interaction score (O5-bN): -1.06
interaction score (O13-bN): -0.808
interaction score (O15-bN): -0.577
interaction score (O9-bN): -0.813
interaction score (O8-bN): -1.26
interaction score (O14-bN): -0.639
interaction score (O16-bN): -1.91
interaction score (O12-bN): 0.971
interaction score (O11-bN): -0.191
interaction score (O6-bN): -0.927
Binder: DKIQQLKQEIQELEQENQELEWENQELEQ [O11-bN]
